Measured values: patent US20110165064A1
Where no end group is shown, it is not given here. [ ]: non-standard residue; d: D form. NMeE = CN[C@@H](CCC(=O)O)C(=O)O

B1: CR(NMe)EKA (peptide)
peptide: CR[NMeE]KA
B2: CREKA peptide (cys-arg-glu-lys-ala) (peptide)
peptide: CREKA

Biological target: clotted plasma proteins
Experiment: binding to plasma clots; method not described, data not shown

Binder	Kd [µM]
B1	2.5
B2	6
